Reference: article PMC11124806, “Optimization of Surface Functionalizations for Ring Resonator-Based Biosensors”

T1: C-reactive protein (CRP) (UniProt P02741 19-224)
T1 sequence: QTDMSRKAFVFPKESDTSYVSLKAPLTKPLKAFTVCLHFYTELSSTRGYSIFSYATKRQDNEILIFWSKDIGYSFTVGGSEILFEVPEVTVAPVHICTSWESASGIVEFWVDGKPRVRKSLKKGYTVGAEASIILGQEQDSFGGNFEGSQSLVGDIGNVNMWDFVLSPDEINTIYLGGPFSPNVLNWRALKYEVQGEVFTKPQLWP


Legend:
thrombin (Thr) = thrombin (Thr) (UniProt P00734;P00734 328-363;364-622); experiment: microring resonator (label-free photonic biosensor); 100 nM thrombin, 0.05% Tween 20, MCH-passivated chip; about 71% retained after buffer wash; CRP: 20 mM Hepes, 120 mM NaCl, 5 mM KCl, 1 mM CaCl2, 1 mM MgCl2, pH 7.3, room temperature, 30 min; thrombin: buffer with 0.05% Tween 20 (composition and tempera)
C-reactive protein (CRP) = molecular target: T1, C-reactive protein (CRP); experiment: surface sandwich chemiluminescence (anti-CRP antibody-HRP); 100 nM CRP, 1 mM Ca2+, 1 mM Mg2+; still binds after two months storage at 4 C; CRP: 20 mM Hepes, 120 mM NaCl, 5 mM KCl, 1 mM CaCl2, 1 mM MgCl2, pH 7.3, room temperature, 30 min; thrombin: buffer with 0.05% Tween 20 (composition and temperature not in material); conditions: protein: commercial; chain copies: 5; label: 3' TAMRA on some amounts

Row | Binder | binding result (thrombin (Thr)) | binding result (C-reactive protein (CRP))
1 | AGTCCGTGGTAGGGCAGGTTGGGGTGACT (structured_DNA, 5' thiol (5ThioMC6-D, reduced), immobilized on mercaptosilane) [a-Thr] | binds | –
2 | CGAAGGGGATTCGAGGGGTGATTGCGTGCTCCATTTGGTG (ssDNA, 5' thiol (5ThioMC6-D, reduced), immobilized on mercaptosilane) [a-CRP] | – | binds
